Reference: patent US10227388B2, “Peptides and combination of peptides for use in immunotherapy against non-small cell lung cancer and other cancers” (immatics biotechnologies GmbH, priority 2015, dated 2019)

target: HLA-A*02:01 (Homo sapiens, UniProt P04439, D140Y/D185E/D98H/E176V/E277Q/G131W/G231S/I119V/I121R/I166T/I218V/L300P/L318F/N151K/N90K/P208A/P217A/Q86G/Q94H/R138H/R169H/T345S); assay: MHC binding assay (UV-ligand exchange, ELISA, peptide exchange yield); conditions: binding of HLA-class I restricted peptides to HLA-A*02:01
Procedure, shortened: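 Exchange yield was quantified as stabilized β2m-containing complex: monomers diluted 100-fold bound to streptavidin-coated wells, probed with HRP-conjugated anti-β2m, read at 450 nm after TMB. Complexes had been generated by UV cleavage of a photolabile ligand and replacement with the candidate peptide.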

Peptide exchange (MHC class I binding score, peptide exchange yield) | Substance
″+++″ (≥50% = +++) | 554 (LLMPSSEDLLL; listed as Homo sapiens) [compound 554]
″+++″ (≥50% = +++) | 555 (YVLEGLKSV; listed as Homo sapiens) [compound 555]
″+++″ (≥50% = +++) | 556 (FLTDLEDLTL; listed as Homo sapiens) [compound 556]
″+++″ (≥50% = +++) | 557 (KLYDDMIRL; listed as Homo sapiens) [compound 557]
″+++″ (≥50% = +++) | 558 (GLLENIPRV; listed as Homo sapiens) [compound 558]
″++″ (≥20% = ++) | 559 (VTVPPGPSL; listed as Homo sapiens) [compound 559]
″+++″ (≥50% = +++) | 560 (ALWDIETGQQTTT; listed as Homo sapiens) [compound 560]
″+++″ (≥50% = +++) | 561 (YLQLTQSEL; listed as Homo sapiens) [compound 561]
″+++″ (≥50% = +++) | 562 (YLEELPEKLKL; listed as Homo sapiens) [compound 562]
″+++″ (≥50% = +++) | 563 (WLLPYNGVTV; listed as Homo sapiens) [compound 563]
″+++″ (≥50% = +++) | 564 (TVTNAVVTV; listed as Homo sapiens) [compound 564]
″++″ (≥20% = ++) | 565 (ALQETPTSV; listed as Homo sapiens) [compound 565]
″++″ (≥20% = ++) | 566 (VIADGGIQNV; listed as Homo sapiens) [compound 566]
″+++″ (≥50% = +++) | 567 (SLLPLDDIVRV; listed as Homo sapiens) [compound 567]
″++++″ (≥75% = ++++) | 568 (TLYDIAHTPGV; listed as Homo sapiens) [compound 568]
″+++″ (≥50% = +++) | 569 (KLVDRTWTL; listed as Homo sapiens) [compound 569]
″++″ (≥20% = ++) | 570 (ALANQIPTV; listed as Homo sapiens) [compound 570]
″+++″ (≥50% = +++) | 571 (LLLTTIPQI; listed as Homo sapiens) [compound 571]
″+++″ (≥50% = +++) | 572 (ALADLIEKELSV; listed as Homo sapiens) [compound 572]

Peptide exchange (MHC class I binding score, peptide exchange yield) | Substance
″+++″ (≥50% = +++) | 573 (ILVANAIVGV; listed as Homo sapiens) [compound 573]
″++″ (≥20% = ++) | 574 (YLLQEPPRTV; listed as Homo sapiens) [compound 574]
″+++″ (≥50% = +++) | 575 (YLISQVEGHQV; listed as Homo sapiens) [compound 575]
″++++″ (≥75% = ++++) | 576 (ILLNNSGQIKL; listed as Homo sapiens) [compound 576]
″+++″ (≥50% = +++) | 577 (VMFEDGVLMRL; listed as Homo sapiens) [compound 577]
″+++″ (≥50% = +++) | 578 (FLDPGGPMMKL; listed as Homo sapiens) [compound 578]
″++″ (≥20% = ++) | 579 (NLMEMVAQL; listed as Homo sapiens) [compound 579]
″++″ (≥20% = ++) | 580 (LLMENAERV; listed as Homo sapiens) [compound 580]
″+++″ (≥50% = +++) | 582 (TLCDVILMV; listed as Homo sapiens) [compound 582]
″+++″ (≥50% = +++) | 583 (ILANDGVLLAA; listed as Homo sapiens) [compound 583]
″+++″ (≥50% = +++) | 584 (ALAEVAAMENV; listed as Homo sapiens) [compound 584]
″++++″ (≥75% = ++++) | 585 (ALWDLAADKQTL; listed as Homo sapiens) [compound 585]
″+++″ (≥50% = +++) | 586 (KLKPGDLVGV; listed as Homo sapiens) [compound 586]
″+++″ (≥50% = +++) | 587 (VMNDRLYAI; listed as Homo sapiens) [compound 587]
″+++″ (≥50% = +++) | 588 (SLLPLSHLV; listed as Homo sapiens) [compound 588]
″+++″ (≥50% = +++) | 589 (KLYPQLPAEI; listed as Homo sapiens) [compound 589]
″++″ (≥20% = ++) | 590 (SLIEKLWQT; listed as Homo sapiens) [compound 590]
″+++″ (≥50% = +++) | 591 (SMAELDIKL; listed as Homo sapiens) [compound 591]
″+++″ (≥50% = +++) | 592 (RLLSAAENFL; listed as Homo sapiens) [compound 592]

Second part, the substance before the results:

Substance | Peptide exchange (MHC class I binding score, peptide exchange yield)
520 (LAVHPSGVAL; listed as Homo sapiens) [compound 520] | ″+″ (≥10% = +)
521 (MLLTKLPTI; listed as Homo sapiens) [compound 521] | ″+++″ (≥50% = +++)
522 (TLWYRSPEV; listed as Homo sapiens) [compound 522] | ″++″ (≥20% = ++)
523 (YQIPRTFTL; listed as Homo sapiens) [compound 523] | ″++″ (≥20% = ++)
524 (ALIENLTHQI; listed as Homo sapiens) [compound 524] | ″++″ (≥20% = ++)
525 (VLLEAGEGLVTI; listed as Homo sapiens) [compound 525] | ″+++″ (≥50% = +++)
526 (RLAEVGQYEQV; listed as Homo sapiens) [compound 526] | ″++″ (≥20% = ++)
527 (FLLEPGNLEV; listed as Homo sapiens) [compound 527] | ″++++″ (≥75% = ++++)
528 (SVAEGRALMSV; listed as Homo sapiens) [compound 528] | ″+++″ (≥50% = +++)
529 (LLADELITV; listed as Homo sapiens) [compound 529] | ″+++″ (≥50% = +++)
530 (VMYADIGGMDI; listed as Homo sapiens) [compound 530] | ″+++″ (≥50% = +++)
531 (YTLPIASSIRL; listed as Homo sapiens) [compound 531] | ″+++″ (≥50% = +++)
537 (TLAPGEVLRSV; listed as Homo sapiens) [compound 537] | ″+++″ (≥50% = +++)
538 (LLLAHIIAL; listed as Homo sapiens) [compound 538] | ″++″ (≥20% = ++)
539 (ALFDAQAQV; listed as Homo sapiens) [compound 539] | ″+++″ (≥50% = +++)
541 (SMLEPVPEL; listed as Homo sapiens) [compound 541] | ″+++″ (≥50% = +++)
542 (RVWDISTVSSV; listed as Homo sapiens) [compound 542] | ″+++″ (≥50% = +++)
543 (GLLPTPITQQASL; listed as Homo sapiens) [compound 543] | ″+++″ (≥50% = +++)
544 (LLWDVPAPSL; listed as Homo sapiens) [compound 544] | ″+++″ (≥50% = +++)
545 (LLADLLHNV; listed as Homo sapiens) [compound 545] | ″+++″ (≥50% = +++)
546 (VMIAGKVAVV; listed as Homo sapiens) [compound 546] | ″+++″ (≥50% = +++)
547 (TLDITPHTV; listed as Homo sapiens) [compound 547] | ″+++″ (≥50% = +++)
548 (ALWENPESGEL; listed as Homo sapiens) [compound 548] | ″++″ (≥20% = ++)
549 (AMLENASDIKL; listed as Homo sapiens) [compound 549] | ″+++″ (≥50% = +++)
550 (FLYDEIEAEVNL; listed as Homo sapiens) [compound 550] | ″+++″ (≥50% = +++)
551 (KLYESLLPFA; listed as Homo sapiens) [compound 551] | ″+++″ (≥50% = +++)
552 (GLLDLPFRVGV; listed as Homo sapiens) [compound 552] | ″++++″ (≥75% = ++++)
553 (SLLNQDLHWSL; listed as Homo sapiens) [compound 553] | ″++++″ (≥75% = ++++)
